This note sets out measurements from patent US20110311556A1 (LFB BIOTECHNOLOGIES, published 2011).

In test [1] the target is T1, Rhesus D antigen (RhD) on Rhesus D positive red blood cells group O R1R1 (human, UniProt Q02161 2-417).
T1 construct: whole, on cells
T1 sequence (looked up): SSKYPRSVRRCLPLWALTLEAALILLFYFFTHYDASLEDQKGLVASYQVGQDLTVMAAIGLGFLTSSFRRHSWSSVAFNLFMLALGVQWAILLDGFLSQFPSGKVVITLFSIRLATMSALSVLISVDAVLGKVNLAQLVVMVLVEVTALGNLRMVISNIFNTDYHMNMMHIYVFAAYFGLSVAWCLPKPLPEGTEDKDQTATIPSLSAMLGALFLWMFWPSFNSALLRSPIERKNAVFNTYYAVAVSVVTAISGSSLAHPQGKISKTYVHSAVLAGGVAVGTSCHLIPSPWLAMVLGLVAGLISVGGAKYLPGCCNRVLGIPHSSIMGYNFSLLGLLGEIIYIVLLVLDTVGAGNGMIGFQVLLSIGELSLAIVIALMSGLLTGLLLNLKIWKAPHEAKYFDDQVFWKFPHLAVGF
Kind of test: cytometric determination of anti-D specific activity on red blood cells.

A further test concerns the target CD16 (FcγRIII receptor) (UniProt P08637 17-254, limits assumed). Kind of test: cell-based or functional assay.

Chain of CD16 (FcγRIII receptor) (P08637 17-254 limits assumed): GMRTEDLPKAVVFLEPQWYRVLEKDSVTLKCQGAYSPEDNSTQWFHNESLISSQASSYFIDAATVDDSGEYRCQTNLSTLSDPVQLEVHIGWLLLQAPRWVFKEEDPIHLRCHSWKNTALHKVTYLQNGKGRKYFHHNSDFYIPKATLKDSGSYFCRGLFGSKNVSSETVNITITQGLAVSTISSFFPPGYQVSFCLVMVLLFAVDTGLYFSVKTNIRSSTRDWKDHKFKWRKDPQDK

B1: non-mutant (C68) anti-D antibody (sequence of the R297 antibody of clone T125 A2) (antibody, human IgG1, kappa)
heavy: not shown
light: AIRMTQSPSSFSASTGDRVTITCRASQDIRNYVAWYQQKSGKAPKFLIYAASTLQSGVPSRFSGSGSGTDFTLTINSLQSEDFATYYCQQYYNSPPTFGQGTRVEITRTVAAPSVFIFPPSDEQLKSGTASVVCLLNNFYPREAKVQWKVDNALQSGNSQESVTEQDSKDSTYSLSSTLTLSKADYEKHKVYACEVTHQGLSSPVTKSFNRGEC
notes: IgG1 tetramer; also called non-mutant (C68) antibody; T125 anti-D antibody
As to B1, the binding result in test [1] is listed as “binds”. Besides, the “ADCC activity: EC50 (antibody concentration producing 50% of maximum activity)” value in the test with CD16 (FcγRIII receptor) came to 0.02 µg/mL.

B2: R593 antibody (mutant (F68) anti-D antibody) (antibody, human IgG1, kappa)
heavy: not shown
light: AIRMTQSPSSFSASTGDRVTITCRASQDIRNYVAWYQQKSGKAPKFLIYAASTLQSGVPSRFSGSGSGTDFTLTINSLQSEDFATYYCQQYYNSPPTFGQGTRVEITRTVAAPSVFIFPPSDEQLKSGTASVVCLLNNFYPREAKVQWKVDNALQSGNSQESVTEQDSKDSTYSLSSTLTLSKADYEKHKVYACEVTHQGLSSPVTKSFNRGEC
notes: Tetrameric IgG1 with kappa light chain, two heavy and two light chains; Phenylalanine at heavy chain position 68 (67 by Kabat); Produced in the YB2/0 line; also called mutant (F68) antibody; mutant F68 antibody
As to B2, the binding result in test [1] is on record as “binds”. Besides, the “ADCC activity: EC50 (antibody concentration producing 50% of maximum activity)” value with CD16 (FcγRIII receptor) came out at 0.021 µg/mL.
